Data set [1] concerns HeLa Kyoto. Description: solubility in G1/S (NP-40 vs SDS abundance) (log2 ratio); higher = more soluble. Particulars: cell cycle stage: G1/S.
Data set [2] concerns HeLa Kyoto. Description: melting temperature (median over replicates), in situ; higher = more thermally stable.
Data set [3] relates to HeLa Kyoto. Description: solubility change mitosis vs G1/S (difference of NP-40 vs SDS log2 ratios) (log2 ratio difference); higher = more soluble in mitosis.
Data set [4] relates to HeLa Kyoto. The experiment in a line: thermal stability score vs G1/S (z-score of summed log2 fold changes over temperatures); higher = more thermally stable than in G1/S.
Where [5] appears, read: cell cycle stage: early G1 (4.5 h after nocodazole release).

Five sequences from the supplement of paper PMC5998384 can be followed below.
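For melting temperature (median over replicates), in situ in this document: HeLa Kyoto cells synchronized by double thymidine or nocodazole block, proteins quantified by TMT10plex mass spectrometry, three independent biological replicates.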
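For solubility change mitosis vs G1/S (difference of NP-40 vs SDS log2 ratios) in this document: synchronized HeLa Kyoto cells (double thymidine block for G1/S, nocodazole release for mitosis), protein amounts in NP-40 versus SDS lysates quantified by mass spectrometry, three biological replicates.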
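For solubility in G1/S (NP-40 vs SDS abundance) in this document: HeLa Kyoto cells arrested at G1/S by double thymidine block, proteins quantified by TMT10plex mass spectrometry in mild NP-40 versus SDS extracts, three biological replicates.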
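For thermal stability score vs G1/S (z-score of summed log2 fold changes over temperatures) in this document: synchronized HeLa Kyoto cells, proteins quantified by TMT10plex mass spectrometry, three biological replicates, mitosis taken 0.5 h after nocodazole release, G1/S directly after double thymidine block.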

For “MSSVQQQPPPPRRVTNVGSLLLTPQENESLFTFLGKKCVTMSSAVVQLYAADRNCMWSKKCSGVACLVKDNPQRSYFLRIFDIKDGKLLWEQELYNNFVYNSPRGYFHTFAGDTCQVALNFANEEEAKKFRKAVTDLLGRRQRKSEKRRDPPNGPNLPMATVDIKNPEITTNRFYGPQVNNISHTKEKKKGKAKKKRLTKADIGTPSNFQHIGHVGWDPNTGFDLNNLDPELKNLFDMCGISEAQLKDRETSKVIYDFIEKTGGVEAVKNELRRQAPPPPPPSRGGPPPPPPPPHNSGPPPPPARGRGAPPPPPSRAPTAAPPPPPPSRPSVAVPPPPPNRMYPPPPPALPSSAPSGPPPPPPSVLGVGPVAPPPPPPPPPPPGPPPPPGLPSDGDHQVPTTAGNKAALLDQIREGAQLKKVEQNSRPVSCSGRDALLDQIRQGIQLKSVADGQESTPPTPAPTSGIVGALMEVMQKRSKAIHSSDEDEDEDDEEDFEDDDEWED [WASL]”, the “solubility in G1/S (log2)” value in the data set with HeLa Kyoto [1] is 0.303. Besides, the melting temperature with HeLa Kyoto [2] (cell cycle stage: G1/S) was 50.7 °C; with HeLa Kyoto [2] (cell cycle stage: mitosis) it was 51.3 °C. Further, the “solubility change mitosis (log2)” value in the data set with HeLa Kyoto [3] was -0.121. The thermal stability score was 0.0343 in the data set on HeLa Kyoto [4] (setting [5]) and 1.24 in the data set on HeLa Kyoto [4] (cell cycle stage: mitosis).

As for “MSTAAVPELKQISRVEAMRLGPGWSHSCHAMLYAANPGQLFGRIPMRFSVLMQMRFDGLLGFPGGFVDRRFWSLEDGLNRVLGLGLGCLRLTEADYLSSHLTEGPHRVVAHLYARQLTLEQLHAVEISAVHSRDHGLEVLGLVRVPLYTQKDRVGGFPNFLSNAFVSTAKCQLLFALKVLNMMPEEKLVEALAAATEKQKKALEKLLPASS [NUDT16L1]”, the “solubility in G1/S (log2)” value with HeLa Kyoto [1] was -0.521. In addition, the values for the melting temperature in the data set with HeLa Kyoto [2] (cell cycle stage: G1/S) and with HeLa Kyoto [2] (cell cycle stage: mitosis) were 52 °C and 52.3 °C, respectively. Also, the “solubility change mitosis (log2)” value with HeLa Kyoto [3] is 0.104. The thermal stability score in the data set on HeLa Kyoto [4] (setting [5]) was -0.0688; with HeLa Kyoto [4] (cell cycle stage: mitosis), -2.32.

Turning to “MSTEGGFGGTSSSDAQQSLQSFWPRVMEEIRNLTVKDFRVQELPLARIKKIMKLDEDVKMISAEAPVLFAKAAQIFITELTLRAWIHTEDNKRRTLQRNDIAMAITKFDQFDFLIDIVPRDELKPPKRQEEVRQSVTPAEPVQYYFTLAQQPTAVQVQGQQQGQQTTSSTTTIQPGQIIIAQPQQGQTTPVTMQVGEGQQVQIVQAQPQGQAQQAQSGTGQTMQVMQQIITNTGEIQQIPVQLNAGQLQYIRLAQPVSGTQVVQGQIQTLATNAQQGQRNASQGKPRRCLKETLQITQTEVQQGQQQFSQFTDGQRNSVQQARVSELTGEAEPREVKATGNSTPCTSSLPTTHPPSHRAGASCVCCSQPQQSSTSPPPSDALQWVVVEVSGTPNQLETHRELHAPLPGMTSLSPLHPSQQLYQIQQVTMPAGQDLAQPMFIQSANQPSDGQAPQVTGD [NFYC]”, in the data set on HeLa Kyoto [1], the “solubility in G1/S (log2)” value is 0.266. Also, the melting temperature was determined as 54.7 °C with HeLa Kyoto [2] (cell cycle stage: G1/S) and 54.3 °C in the data set on HeLa Kyoto [2] (cell cycle stage: mitosis). In addition, in the data set with HeLa Kyoto [3], the “solubility change mitosis (log2)” value was -0.174. The results for the thermal stability score in the data set on HeLa Kyoto [4] (setting [5]) and in the data set on HeLa Kyoto [4] (cell cycle stage: mitosis) were -0.186 and -0.549, respectively.

In the case of “MSTGGDFGNPLRKFKLVFLGEQSVGKTSLITRFMYDSFDNTYQATIGIDFLSKTMYLEDRTVRLQLWDTAGQERFRSLIPSYIRDSTVAVVVYDITNVNSFQQTTKWIDDVRTERGSDVIIMLVGNKTDLADKRQVSIEEGERKAKELNVMFIETSAKAGYNVKQLFRRVAAALPGMESTQDRSREDMIDIKLEKPQEQPVSEGGCSC [RAB6A]”, the “solubility in G1/S (log2)” value in the data set with HeLa Kyoto [1] was -0.0491. Moreover, the values for the melting temperature in the data set on HeLa Kyoto [2] (cell cycle stage: G1/S) and with HeLa Kyoto [2] (cell cycle stage: mitosis) were 56.5 °C and 57.1 °C, respectively. Besides, the “solubility change mitosis (log2)” value with HeLa Kyoto [3] was -0.0808. Moreover, the thermal stability score in the data set with HeLa Kyoto [4] (setting [5]) is -2.97; with HeLa Kyoto [4] (cell cycle stage: mitosis), -6.05.

On to “MSTKQITCRYFMHGVCREGSQCLFSHDLANSKPSTICKYYQKGYCAYGTRCRYDHTRPSAAAGGAVGTMAHSVPSPAFHSPHPPSEVTASIVKTNSHEPGKREKRTLVLRDRNLSGMAERKTQPSMVSNPGSCSDPQPSPEMKPHSYLDAIRSGLDDVEASSSYSNEQQLCPYAAAGECRFGDACVYLHGEVCEICRLQVLHPFDPEQRKAHEKICMLTFEHEMEKAFAFQASQDKVCSICMEVILEKASASERRFGILSNCNHTYCLSCIRQWRCAKQFENPIIKSCPECRVISEFVIPSVYWVEDQNKKNELIEAFKQGMGKKACKYFEQGKGTCPFGSKCLYRHAYPDGRLAEPEKPRKQLSSQGTVRFFNSVRLWDFIENRESRHVPNNEDVDMTELGDLFMHLSGVESSEP [MKRN2]”, for which the “solubility in G1/S (log2)” value in the data set on HeLa Kyoto [1] is 0.161. The melting temperature in the data set on HeLa Kyoto [2] (cell cycle stage: G1/S) was determined as 46.5 °C; with HeLa Kyoto [2] (cell cycle stage: mitosis) it was 48.6 °C. In addition, in the data set with HeLa Kyoto [3], the “solubility change mitosis (log2)” value is -0.033. Further, the thermal stability score came to 0.686 in the data set with HeLa Kyoto [4] (setting [5]) and 1.44 in the data set on HeLa Kyoto [4] (cell cycle stage: mitosis).
